# Experimental data as given in US20220331371A1, “DEVELOPMENT OF EMBRYONIC-LIKE TISSUE FROM STEM CELLS” (The Regents of the University of Michigan, priority 2019, published 2022).
# Tests used:
# Format in all cases: cell-based, human
# [1] = tested on: PrePS-EPI-like cells in P-ELS; experiment: Posterior primitive streak-like cell development in P-ELS with antagonists in the induction channel; details: prolonged culture to t=48 h, IWR1 10 μM in induction channel
# From the text: (§1) Cell lines. hPSC lines used in this study include H1 human ES cell (WA01, WiCell; NIH registration number: 0043), H9 human ES cell (WA09, WiCell; NIH registration number: 0062) and 1196a (a human iPSC line from the University of Michigan Pluripotent Stem Cell Core31). All hPSC lines have been authenticated by original sources as well as in-house by immunostaining for pluripotency markers and successful differentiation to the three germ layers. All hPSC lines are maintained in a feeder-free system for at least ten passages and authenticated as karyotypically normal. Karyotype analysis was performed by Cell Line Genetics. All hPSC lines are tested negative for mycoplasma contamination (LookOut Mycoplasma PCR Detection Kit, Sigma-Aldrich). Cell culture. hPSCs were maintained in a standard feeder-free culture system using mTeSR medium (mTeSR; STEMCELL Technologies) or TeSR-E8 medium (Essential 8 or E8; STEMCELL Technologies) and lactate dehydrogenase-elevating virus (LDEV)-free, human ES cell-qualified reduced growth factor basement membrane matrix Geltrex (Thermo Fisher Scientific; derived from Engelbreth-Holm-Swarm tumors similarly to Matrigel). Cell cultures were visually examined during each passage to ensure absence of spontaneously differentiated, mesenchymal-like cells in culture. All hPSCs were used before reaching P70. Device fabrication. The microfluidic device consists of a polydimethylsiloxane (PDMS) structure layer bonded to a coverslip. The PDMS structure layer is made by mixing PDMS curing agent and base polymer (Sylgard 184; Dow Coming) at a ratio of 1:10 before casting PDMS prepolymer onto a microfabricated silicon mold and baking at 110° C. for 40 min. Medium reservoirs (8 mm in diameter) and gel-loading ports (1.2 mm in diameter) were then punched into the PDMS structure layer using Harris Uni-Core punch tools (Ted Pella). After cleaning with ethanol and air plasma activation, the PDMS structure layer was bonded to a coverslip before baking at 80° C. overnight. Before usage, the microfluidic device was sterilized under UV light for 30 min. […]
# hPGCLCs in P-ELS = experiment: hPGCLC specification in P-ELS; details: P-ELS treated with 0.4 μM or 2 μM
# From the text: as §1, with “fabrication.” for “fabrication. The microfluidic device consists of a polydimethylsiloxane (PDMS) structure layer bonded to a coverslip. The PDMS structure layer is made by mixing PDMS curing agent and base polymer (Sylgard 184; Dow Coming) at a ratio of 1:10 before casting PDMS prepolymer onto a microfabricated silicon mold and baking at 110° C. for 40 min. Medium reservoirs (8 mm in diameter) and gel-loading ports (1.2 mm in diameter) were then punched into the PDMS structure layer using Harris Uni-Core punch tools (Ted Pella). After cleaning with ethanol and air plasma activation, the PDMS structure layer was bonded to a coverslip before baking at 80° C. overnight. Before usage, the microfluidic device was sterilized under UV light for 30 min.”
# [2] = tested on: embryonic-like sacs (P-ELS, A-ELS); experiment: Microfluidic generation of asymmetric embryonic-like sacs with morphogens in the induction channel; details: for Cyst phenotype obtained: 50 ng ml^−1 each, supplemented into the induction channel
# From the text: Cell lines. hPSC lines used in this study include H1 human ES cell (WA01, WiCell; NIH registration number: 0043), H9 human ES cell (WA09, WiCell; NIH registration number: 0062) and 1196a (a human iPSC line from the University of Michigan Pluripotent Stem Cell Core31). All hPSC lines have been authenticated by original sources as well as in-house by immunostaining for pluripotency markers and successful differentiation to the three germ layers. All hPSC lines are maintained in a feeder-free system for at least ten passages and authenticated as karyotypically normal. Karyotype analysis was performed by Cell Line Genetics. All hPSC lines are tested negative for mycoplasma contamination (LookOut Mycoplasma PCR Detection Kit, Sigma-Aldrich). Cell culture. hPSCs were maintained in a standard feeder-free culture system using mTeSR medium (mTeSR; STEMCELL Technologies) or TeSR-E8 medium (Essential 8 or E8; STEMCELL Technologies) and lactate dehydrogenase-elevating virus (LDEV)-free, human ES cell-qualified reduced growth factor basement membrane matrix Geltrex (Thermo Fisher Scientific; derived from Engelbreth-Holm-Swarm tumors similarly to Matrigel). Cell cultures were visually examined during each passage to ensure absence of spontaneously differentiated, mesenchymal-like cells in culture. All hPSCs were used before reaching P70. Device fabrication. The microfluidic device consists of a polydimethylsiloxane (PDMS) structure layer bonded to a coverslip. The PDMS structure layer is made by mixing PDMS curing agent and base polymer (Sylgard 184; Dow Coming) at a ratio of 1:10 before casting PDMS prepolymer onto a microfabricated silicon mold and baking at 110° C. for 40 min. Medium reservoirs (8 mm in diameter) and gel-loading ports (1.2 mm in diameter) were then punched into the PDMS structure layer using Harris Uni-Core punch tools (Ted Pella). After cleaning with ethanol and air plasma activation, the PDMS structure layer was bonded to a coverslip before baking at 80° C. overnight. Before usage, the microfluidic device was sterilized under UV light for 30 min. Geltrex diluted in mTeSR (8 mg ml^−1) was then injected into the central gel channel and allowed to cure for 10 min at 37° C. in an incubator. The central gel channel was separated from the cell loading and induction channels by trapezoid-shaped supporting posts. Diluted Geltrex matrix was contained in the gel channel by supporting posts owing to surface tension. Upon gelation, Geltrex matrix contracts, generating concave Geltrex pockets between supporting posts. mTeSR medium was immediately added to medium reservoirs to fill both the cell loading and induction channels. The microfluidic device was then incubated at 37° C. and 5% CO2, for 24 h to stabilize the Geltrex matrix in the gel channel. Microfluidic assays. Colonies of hPSCs were dissociated by Accutasc. (Sigma-Aldrich) at 37° C., for 10 min before being suspended in mTeSR as single cells. Cells were then centrifuged and resuspended in mTeSR, containing 10 μM Y27632 (Tocris), a ROCK inhibitor that prevents dissociation-induced apoptosis of hPSCs32, at a concentration of 8×10^6 cells per ml. After aspirating mTeSR from medium reservoirs, 10 μl hPSC suspension was introduced into the cell-loading channel (t=−18 h), The microfluidic device was then tilted 90° for 10 min to allow cell settlement into Geltrex pockets and their clustering and adhesion to Geltrex matrix. Medium reservoirs were then refilled with fresh mTeSR medium containing 10 μM Y27632. […]
molecule,measurement,setting,value
O=C(Nc1cccc2cccnc12)c1ccc(N2C(=O)[C@@H]3[C@H](C2=O)[C@@H]2C=C[C@H]3C2)cc1 [IWR1],Effect on progressive development of P-ELS,[1],does not affect
O=C(NNc1nc2cc(F)ccc2n2cccc12)c1cnccn1 [SC144],Effect on hPGCLC specification,hPGCLCs in P-ELS,did not affect
"WNT3A: exogenous Wnt protein (R&D Systems) (protein, UniProt P56704 19-352, looked up) Protein Wnt-3a: SYPIWWSLAVGPQYSSLGSQPILCASIPGLVPKQLRFCRNYVEIMPSVAEGIKIGIQECQHQFRGRRWNCTTVHDSLAIFGPVLDKATRESAFVHAIASAGVAFAVTRSCAEGTAAICGCSSRHQGSPGKGWKWGGCSEDIEFGGMVSREFADARENRPDARSAMNRHNNEAGRQAIASHMHLKCKCHGLSGSCEVKTCWWSQPDFRAIGDFLKDKYDSASEMVVEKHRESRGWVETLRPRYTYFKVPTERDLVYYEASPNFCEPNPETGSFGTRDRTCNVSSHGIDGCDLLCCGRGHNARAERRREKCRCVFHWCCYVSCQECTRVYDVHTCK",Cyst phenotype obtained,[2],"columnar epiblast-like cysts containing OCT4^+NANOG^+, COX2^−EOMES^−T^− EPILCs"
same,Requirement for embryonic-like sac formation,"[2]; induction channel, with or without BMP4",dispensable
"BMP4: Bone Morphogenic Protein 4 (R&D Systems) (protein, UniProt P12644 293-408, looked up) Bone morphogenetic protein 4: SPKHHSQRARKKNKNCRRHSLYVDFSDVGWNDWIVAPPGYQAFYCHGDCPFPLADHLNSTNHAIVQTLVNSVNSSIPKACCVPTELSAISMLYLDEYDKVVLKNYQEMVVEGCGCR",Cysts differentiated into asymmetrical E-cadherin+ sacs (P-ELS),"[2]; BMP4 50 ng ml^−1 in induction channel from t=0 h, t=36 h",92%
same,Cysts patterned to amniotic ectoderm-like fate (A-ELS),"[2]; BMP4 in induction channel, IWP2 and noggin in cell-loading channel, t=36 h",96%
"Activin A: exogenous activin protein (R&D Systems) (protein, UniProt P08476 311-426, looked up, Inhibin beta A chain) Inhibin beta A chain: GLECDGKVNICCKKQFFVSFKDIGWNDWIIAPSGYHANYCEGECPSHIAGTSGSSLSFHSTVINHYRMRGHSPFANLKSCCVPTKLRPMSMLYYDDGQNIIKKDIQNMIVEECGCS",Cyst phenotype obtained,[2],cysts containing OCT4^+NANOG^+EPILCs intermixed with EOMES^+T^+CDX2^− anterior primitive streak-like cells
